Measured values as given in the RNAGym collection of RNA variant scans (doi:10.1073/pnas.2313332121).
Fewer inactive variants are shown than the library holds.

B1: TPR 5TU (parent)
chain: GGAUCUUCUCGAUCUAACAAAAAAGACAAAUCUGCCACAAAGCUUGAGAGCAUCUUCGGAUGCAGAGGCGGCAGCCUUCGGUGGCGCGAUAGCGCCAACGUUCUCAACUAUGACACGCAAAACGCGUGCUCCGUUGAAUGGAGUUUAUCAUG

Variants of: B1
Test: polymerase ribozyme fitness, log enrichment relative to wild type (log ratio); higher = more active; in vitro selection for triplet polymerase activity
Procedure, shortened: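 Input and output libraries were sequenced on Illumina after a single in vitro selection round, run in triplicate on PCR-built, transcribed mutant libraries of each subunit of a heterodimeric triplet polymerase ribozyme. Selection annealed libraries to a biotinylated primer, the partner subunit and triplets, incubated them frozen at −7 °C, then gel-excised extended constructs for streptavidin-bead capture and RT-PCR. Genotypes with ≥10 input reads and ≥1 read per output were kept. Fitness is the logarithm, taken in base 2, of genotype enrichment divided by wild-type enrichment, using inverse-variance-weighted replicate averages.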

Row | Variant | polymerase ribozyme fitness (log ratio)
1 | C96U G143C | -3.12
2 | C96U G143A | -0.236
3 | G94U A97G U127A A150U | ≤ -4.2
4 | G94U G141C | -1.45
5 | C96A G152U | -2.51
6 | U101A G143C | -2.08
7 | A98G G128A | -3.02
8 | C96G A98U U144G | -0.0548
9 | C96G A97G G143U | -3.14
10 | G100U U139G U146G | ≤ -4.2
11 | G100A C129G | ≤ -4.2
12 | G94C G126A | 0.311
13 | C96U C105A C116G | -1.79
14 | C96A C105U A122U | 0.463
15 | C96A U104A G124C | -1.19
16 | C99A U148G | ≤ -4.2
17 | C95U A107G | -4.16
18 | G94A C123G U146G | -1.05
19 | C99A U101G | -3.16
20 | G94U C96U | -0.719
21 | A98G A120G C125A U144A | -1.16

Row | Variant | polymerase ribozyme fitness (log ratio)
22 | A97G C131G | -3.21
23 | A97G C131A | -2.32
24 | C99A A115U A120G | -2.43
25 | C99G A137C A142G | -3.71
26 | C93U U148A | -3.85
27 | G94A U139C | -3.82
28 | A97U U139A U144A | -4.08
29 | C96A U139C | -3.61
30 | C96U U144G | -0.238
31 | C95U C123U | 0.509
32 | C99G A147C | -1.47
33 | G94C A122C A137U | -4.05
34 | G94A U148C | -2.75
35 | G94A U148A | -3.08
36 | G94C U101A G152A | -2.72
37 | C96A U144A | -0.177
38 | G94C C129G | -3.39
39 | G94A U146G | -1.25
40 | A98U U148A | -3.03
41 | C96A C125U G143A | -3.57
42 | C95U C96U G124U G136C | -3.61

Row | Variant | polymerase ribozyme fitness (log ratio)
43 | G94A C116G C123G | 0.258
44 | C95A C99A C123G | -1.33
45 | A97G G141C | -1.86
46 | C99G G124A G141U | -0.199
47 | G94C U134G U135C | ≤ -4.2
48 | G94A C105U C116U C125G | -0.0334
49 | C96G C105U C116G A119U C132U | -1.57
50 | C96U A121G | 0.324
51 | C99U G136U | -2.25
52 | C99U G136A | 0.0423
53 | C96U C131U | 0.576
54 | C96U C131G | -2.66
55 | C95U A98G C105U | 0.768
56 | C96U A119C G141A | 0.872
57 | C96A C105G C125A | -2.29
58 | C95G C96U A120U A122C U139G | -1.86
59 | C96A A142U | -1.24
60 | G94A G141A A150U | ≤ -4.2
61 | C96U U101G G124C | -0.75
62 | A97G A107G | -4.13
63 | A98U G136C | -3.87

Row | Variant | polymerase ribozyme fitness (log ratio)
64 | C96G U102C A121G G141A A150G | -4.15
65 | C96G A142C | -1.82
66 | G94A C105G C116A G141C | ≤ -4.2
67 | C96G A110G | -3.11
68 | A97G A150G | -2.82
69 | A97G A150C | -2.96
70 | C95A U101C | 0.62
71 | C95U C125U A142C | -3.48
72 | C96G A119U | -2.52
73 | C95U A142C | -1.54
74 | C95U A142G | -1.66
75 | C96U U139A | -3.94
76 | A97U G124U | -1.05
77 | C96U G141A | 0.0586
78 | C96U G141C | -0.372
79 | C96A U148A | -3.15
80 | C99G U101A | -1.12
81 | C96A C116G G136C | -3.22
82 | G94C G117U | 0.0157
83 | A98U A142U | -2.98
84 | C96U A107U | -3.35
